The values that follow come from patent US20050064533A1 (ADELAIDE RESEARCH AND INNOVATION, published 2005).

For assay [1], the target named is recombinant MBP (Maltose Binding Protein) alone, negative control (UniProt P0AEX9 27-392 = MBP). As to the kind of experiment: pulldown on amylose-agarose resin, autoradiography. On the procedure: (§1) FIG. 8. […] The CAD containing C-terminal 100 amino acids of HIF-2a was in vitro translated in the presence of ³⁵S-methionine. […] The resin mixtures were washed before the pulled down proteins were analysed by SDS-PAGE and autoradiography. Lanes 1-3 show 10% of the input translation mixtures.
(§2) Samples were centrifuged 1500 rpm, 30 secs (room temp) to pellet resin, and the supernatant discarded. Resin was then washed three times with 1 ml of the binding buffer. […] After centrifuging 30 secs/1500 rpm, 30 ul of the supernatant was separated by electrophoresis through a 12.5 % polyacrylamide gel. The gel was dried and exposed to autoradiography.

Assay [2] concerns the target T1, MBP (maltose binding protein) fused to wild type HIF Asparagine Hydroxylase (HNH) (UniProt Q9NWT6 1-349).
T1 construct: also called MBP-HNH; MBP/FIH-1
As to the kind of experiment: pulldown on amylose-agarose resin, autoradiography. The procedure:
as §1, §2

Positions count from the first letter of the chain named. In names and notes the source's numbering stands.

T1 sequence (Q9NWT6 whole entry, the tested form may be a part): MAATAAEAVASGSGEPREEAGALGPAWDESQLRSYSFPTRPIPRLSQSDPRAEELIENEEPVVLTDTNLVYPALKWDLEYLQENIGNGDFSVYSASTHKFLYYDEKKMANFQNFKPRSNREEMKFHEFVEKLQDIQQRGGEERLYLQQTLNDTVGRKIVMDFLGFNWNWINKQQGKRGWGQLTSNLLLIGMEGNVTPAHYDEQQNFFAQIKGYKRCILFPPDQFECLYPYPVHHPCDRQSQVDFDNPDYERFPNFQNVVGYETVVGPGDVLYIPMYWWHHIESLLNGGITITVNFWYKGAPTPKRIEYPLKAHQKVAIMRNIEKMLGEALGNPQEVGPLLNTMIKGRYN

B1: C-terminal 100 amino acids of mouse HIF-2a (775-874), wild type, with N-terminal thioredoxin/6-histidine tag (other)
chain: RGLGQPLRHLPPPQPPSTRSSGENAKTGFPPQCYASQFQDYGPPGAQKVSGVASRLLGPSFEPYLLPELTRYDCEVNVPVPGSSTLLQGRDLLRALDQAT
modifications: in vitro translated in the presence of 35S-methionine (radiolabelled Met)
notes: range 775-874; also called HIF-2a CAD; wild type CAD; not shown: N-terminal thioredoxin/6-histidine tag supplied by the pET32 vector
For B1, the binding result in assay [1] is “no binding”.

B2: C-terminal 100 amino acids of mouse HIF-2a (775-874), mutant N851A, with N-terminal thioredoxin/6-histidine tag (other)
chain: B1 chain with N77A
modifications: in vitro translated in the presence of 35S-methionine (radiolabelled Met)
notes: range 775-874; also called N851A point mutant CAD; not shown: N-terminal thioredoxin/6-histidine tag supplied by the pET32 vector
In the case of B2, the binding result in assay [1] was “no binding”.

B3: C-terminal 100 amino acids of mouse HIF-2a (775-874), mutant RLL to AAA, with N-terminal thioredoxin/6-histidine tag (other, UniProt P97481 775-874, looked up)
chain: B1 chain with R55A, L56A, L57A
modifications: in vitro translated in the presence of 35S-methionine (radiolabelled Met)
notes: range 775-874; also called RLL to AAA triple mutant CAD; not shown: N-terminal thioredoxin/6-histidine tag supplied by the pET32 vector
As to B3, the binding result in assay [1] and in assay [2] was “no binding” throughout.
